No end group written: not given here.
Legend:
HLA-A*6802 = HLA-A*6802 (Homo sapiens, UniProt P04439, A269V/D140Y/D185E/E176V/E277Q/E87N/F33Y/G231S/I121R/I166T/I218V/L180W/L300P/L318F/N151K/P208A/P217A/Q86R/R138H/R169H/S129P/T345S/V36M); assay: purified HLA class I binding assay, A*6802
HLA-A*0203 = HLA-A*0203 (Homo sapiens, UniProt P04439, A173T/D140Y/D185E/D98H/E277Q/G131W/G231S/I119V/I121R/I166T/I218V/L180W/L300P/L318F/N151K/N90K/P208A/P217A/Q86G/Q94H/R138H/R169H/T345S); assay: purified HLA class I binding assay, A*0203
HLA-A*0202 = HLA-A*0202 (Homo sapiens, UniProt P04439, D140Y/D185E/D98H/E176V/E277Q/G131W/G231S/I119L/I121R/I166T/I218V/L180W/L300P/L318F/N151K/N90K/P208A/P217A/Q67R/Q86G/Q94H/R138H/R169H/T345S); assay: purified HLA class I binding assay, A*0202
HLA-A*0206 = HLA-A*0206 (Homo sapiens, UniProt P04439, D140Y/D185E/D98H/E176V/E277Q/F33Y/G131W/G231S/I119V/I121R/I166T/I218V/L300P/L318F/N151K/N90K/P208A/P217A/Q86G/Q94H/R138H/R169H/T345S); assay: purified HLA class I binding assay, A*0206; settings: Table VIII, unit not given
HLA-A*0201 = HLA-A*0201 (Homo sapiens, UniProt P04439, D140Y/D185E/D98H/E176V/E277Q/G131W/G231S/I119V/I121R/I166T/I218V/L300P/L318F/N151K/N90K/P208A/P217A/Q86G/Q94H/R138H/R169H/T345S); assay: purified HLA class I binding assay, A*0201
HLA-A*2402 = HLA-A*2402 (Homo sapiens, UniProt P04439, D101N/D140Y/D185E/E176V/E190D/F33S/G103R/G107R/I119L/I121M/I306V/K335N/L105A/L180Q/L300P/N151K/N90K/Q86E/Q94H/R106L/R138H/R89G/T104I/T345S/V100E/W191G/Y123F); assay: purified HLA class I binding assay, A*2402
HLA-A*3101 = HLA-A*3101 (Homo sapiens, UniProt P04439, A270S/D185E/E176V/E277Q/F33T/G231S/G80R/H175R/I121M/I218V/I322F/K168Q/L300P/L318F/M331R/P217A/Q94H/R138Q/T323A/T345S/T97I/V358M); assay: purified HLA class I binding assay, A*3101; settings: for A*3101 binding information: HIV A03 supermotif peptides, Table IX, unit not given
HLA-A*0301 = biological target: T1, HLA-A*0301 (Homo sapiens, UniProt P04439); assay: purified HLA class I binding assay, A*0301; settings: for A*0301 binding information: HIV A03 supermotif peptides, Table IX; for A0301 (binding information): HIV A03 motif peptides, Table XVI
T1 construct: endogenous in cells; host or cells: GM3107

HLA-A*1101 = HLA-A*1101 (Homo sapiens, UniProt P04439, A114D/D185E/E176A/F33Y/L180Q/S129P/T187R); assay: purified HLA class I binding assay, A*1101
HLA-A*6801 = HLA-A*6801 (Homo sapiens, UniProt P04439, A269V/D185E/E176V/E277Q/E87N/F33Y/G231S/I121M/I166T/I218V/L180W/L300P/L318F/N151K/P208A/P217A/Q86R/R169H/T345S); assay: purified HLA class I binding assay, A*6801; settings: for A*6801 binding information: HIV A03 supermotif peptides, Table IX, unit not given
[1] = Table VIII, HIV A02 Super Motif Peptides with Binding Information, unit not given
[2] = HIV A24 supermotif peptides, purified HLA molecule, no unit printed in Table X
[3] = HIV A02 super motif peptides, Table VIII, unit not given
[4] = HIV A03 supermotif peptides, Table IX, unit not given
[5] = HIV A24 motif peptides, purified HLA-A24 molecule, unit not given
[6] = HIV A24 motif peptides, binding value for purified HLA-A24 molecule, A*2401, unit not given

Sequence: LIFGWCFKLV
- A*6802 binding information (HLA-A*6802; [1]): 6.5000
- A*0203 binding information (HLA-A*0203; [1]): 0.0540
- A*0202 binding information (HLA-A*0202; [1]): 0.0880
- A*0206 binding information (HLA-A*0206; HIV A02 Super Motif Peptides with Binding Information): 0.0640
- A*0201 (binding information) (HLA-A*0201; [1]): 0.0170

Sequence: NMVEQMIIEDI
- A*2401 (binding information) (HLA-A*2402; [2]): 0.0004
- A*0201 (binding information) (HLA-A*0201; [3]): 0.0001

Sequence: NMWQEVGKA
- A*2401 (binding information) (HLA-A*2402; [2]): 0.0001
- A*0201 (binding information) (HLA-A*0201; [3]): 0.0022

Sequence: PYNEWTLEL [Peptide 25.0128]
- IC50 (HLA-A*2402): 86 nM

Sequence: PYNLWILEL
- A*2401 (binding information) (HLA-A*2402; HIV A24 supermotif peptides, A*2401, unit not given, so probably a relative binding value): 0.1400

Sequence: QARYLAVER
- A*3101 binding information (HLA-A*3101): 0.0320
- A*0301 binding information (HLA-A*0301; unit not given): 0.0009
- A*1101 (binding information) (HLA-A*1101; [4]): 0.0003
- A*6801 binding information (HLA-A*6801): 0.0007

Sequence: QLLFIIIFRI
- A*6802 binding (HLA-A*6802; [3]): 0.0840
- A*0203 binding (HLA-A*0203; [3]): 0.0004
- A*0202 binding (HLA-A*0202; [3]): 0.0002
- A*0206 binding (HLA-A*0206; HIV A02 super motif peptides): 0.0023
- A*0201 binding (HLA-A*0201; [3]): 0.0530

Sequence: QMAVFIIINF
- A*2401 (binding information) (HLA-A*2402; [5]): 0.0190
- A*2401 (binding information) (HLA-A*2402; HIV A24 supermotif peptides, Table X, A*2401, unit not given): 0.0190

Sequence: QMVIIQAISPR
- A*3101 binding information (HLA-A*3101): 0.0740
- A0301 (binding information) (HLA-A*0301; binding value unit not given): 0.0260
- A*0301 binding information (HLA-A*0301; unit not given): 0.0260
- A*1101 (binding information) (HLA-A*1101; [4]): 0.0010
- A*6801 binding information (HLA-A*6801): 0.0430

Sequence: RFAVPGLL
- A*2401 (binding information) (HLA-A*2402; [6]): 0.0100

Sequence: TLFCASDAK [1273.06]
- IC50 (HLA-A*3101): 10600 nM
- IC50 (HLA-A*6801): 191 nM

Sequence: TVQCTIIGIK
- A*3101 binding information (HLA-A*3101): 0.0042
- A0301 (binding information) (HLA-A*0301; unit not given): 0.0021
- A*0301 binding information (HLA-A*0301; unit not given): 0.0021
- A*1101 (binding information) (HLA-A*1101; [4]): 0.0460
- A*6801 binding information (HLA-A*6801): 0.0190

Sequence: TVQCTIIGIR
- A*3101 binding information (HLA-A*3101): 0.0880
- A0301 (binding information) (HLA-A*0301; unit not given): 0.0008
- A*0301 binding information (HLA-A*0301; unit not given): 0.0008
- A*1101 (binding information) (HLA-A*1101; [4]): 0.0008
- A*1101 (binding information) (HLA-A*1101; Table XVII, HIV A11 motif peptides, binding value for purified HLA-A*1101, unit not given): 0.0008
- A*6801 binding information (HLA-A*6801): 0.0120

Sequence: VWKEATITLF
- A*2401 (binding information) (HLA-A*2402; [6]): 0.2700

Sequence: WMTNNPPIPV [25.0139]
- IC50 (HLA-A*6802): 2220 nM
- IC50 (HLA-A*0203): 16.9 nM
- IC50 (HLA-A*0202): 3070 nM
- IC50 (HLA-A*0201): 98 nM

Sequence: YWQATWIPE
- A*2401 (binding information) (HLA-A*2402; [5]): 0.0660
- A*2401 (binding information) (HLA-A*2402; HIV A24 supermotif peptides, binding value printed without unit in Table X): 0.0660
